Experiment [1] concerns the target murine proMyostatin (mouse) (UniProt O08689). The experiment is described as follows: method not stated.
For experiment [2], the target named is latent myostatin in serum and muscle of mice (mouse) (UniProt O08689). In words: cell-based or functional assay.

On to SRK-015 (antibody), for which the dissociation constant Kd (usually the concentration at which binding is half-saturated) in experiment [1] was 8.35 nM.
Same read-out and setting: the figure for muSRK-015 (antibody) is 2.57 nM.
In experiment [2], muSRK-015P (antibody) registered a latent myostatin signal in muscle (fluorescent western blot, normalized to total protein, compared to WT mice) of 3 fold. In experiment [1], this substance had a Kd of 2.88 nM.

Source of the values: patent US20190255093A1.
